Measurements from patent publication US11524082B2, “FBSA-based therapeutic and radioimaging conjugates targeting carbonic anhydrase positive cancers” (priority 2017, dated 2022).
pIC50: −log10 of the molar value. “Also recorded” adds a separate entry of the source.

Tests used:
[1] = test system: HT-29 xenografts; assay: In vivo efficacy of tubulysin conjugates in HT-29 xenograft tumors; set-up: species or system mice
Description: Athymic nu/nu mice were purchased from Harlan Laboratories (ENVIGO), housed in a sterile environment on a standard 12 hour light-dark cycle and maintained on normal rodent chow. All animal procedures were approved by the PURDUE Animal Care and Use Committee in accordance with National Institutes of Health guidelines.
In Vivo Efficacy of Tubulysin Conjugate 12 in HT29 Xenograft Tumors.
Cells, HT-29 cells (4.25×10^6) were subcutaneously injected into the shoulders of 5-6 week old female nu/nu mice. Tumors were measured in two perpendicular directions thrice weekly with vernier calipers and their volumes were calculated as 0.5×L×W^2, where L is the longest axis (in millimeters), and W is the axis perpendicular to L (in millimeters). Dosing of Conjugate 12 was initiated when the subcutaneous tumors reached ˜100-275 mm^3 in volume. Dosing solutions were prepared in saline and filtered through a 0.22 μm filter. Solutions were administered via tail vein injection or intraperitoneally. […] Injections were given every two days and the mice were weighed concurrently. […]

[2] = test system: HT-29 cells; format: cell-based; settings: 2 hr incubation, then 66 hr in fresh medium, FIG. 8, read-out: IC50 (3H-thymidine incorporation)
Description: General Procedure for In Vitro Cytotoxicity Determination by ^3H-Thymidine Uptake Assays
HT-29 cells were seeded on amine-coated 24-well plates and allowed to form monolayers. The spent medium in each well was replaced with fresh medium (0.5 mL) containing various concentrations of Conjugate 12. After incubating for 2 hr at 37° C., cells were rinsed three times with fresh medium and then incubated an additional 66 hr at 37° C. in fresh medium. Spent medium in each well was again replaced with fresh medium (0.5 mL) containing ^3H-thymidine (1 μCi/ml) and the cells were incubated for an additional 4 hr. After washing the cells three times with medium, they were dissolved in 0.5 mL of 0.25 M NaOH. Thymidine incorporation was then determined by counting cell-associated radioactivity using a scintillation counter (PACKARD, PACKARD INSTRUMENT COMPANY). The IC50 value was derived from a plot of the percent of ^3H-thymidine incorporation versus log concentration using Graph Pad Prism 4 and TABLECURVE 2D software.

For `CCCC(=O)OCN(C(=O)[C@@H](NC(=O)C1CCCCN1C)[C@@H](C)CC)[C@H](C[C@@H](OC(C)=O)c1nc(C(=O)N[C@@H](Cc2ccc(O)cc2)C[C@H](C)C(=O)NNC(=O)OCCSSC[C@H](NC(=O)[C@H](CC(=O)O)NC(=O)[C@@H](N)CNC(=O)CCOCCOCCNC(=O)CCS(=O)(=O)c2c(F)c(F)c(S(N)(=O)=O)c(F)c2NC2CCCCCCC2)C(=O)O)cs1)C(C)C` (some centres unmarked) [Conjugate 12], the gross toxicity ([1]; HT-29 xenograft mice, 2 μmol/kg per injection) was “no gross toxicity was observed”, the loss of weight ([1]; HT-29 xenograft mice, 2 μmol/kg per injection, FIG. 12) was “less than 10%” and the body mass loss ([1]; HT-29 xenograft mice, 2 umol/kg, at 6 days into the treatment, FIG. 12) was “not more than 10%”. For the same molecule, the tumor response ([1]; HT-29 xenografts, 2 μmol/kg per injection, every two days (TIW), n=3, FIG. 11) was “tumors shrinking; also recorded: halted tumor growth and the xenograft is in the process of shrinking” and the pIC50 [2] was 8.30.
